These results are taken from patent publication US20100291089A1, “LIGAND OF REGULATING IMMUNE RESPONSE, AND USE THEREOF IN TREATING AN IMMUNE RESPONSE-RELATED DISEASE” (POSTECH ACADEMY-INDUSTRY FOUNDATION, priority 2005, published 2010).

Where no end group is shown, it is not given here. [ ]: non-standard residue; d: D form.

What all share (format): cell-based, human
For one assay, the system named is OA FLS. As to the kind of experiment: Cell proliferation assay ([3H]-thymidine incorporation, cell counts) in OA FLS. The conditions noted are these: 72 h. Here is the method:
(§1) Fibroblast-like synoviocytes (FLS) were prepared from synovial samples obtained from patients suffering from RA and osteoarthritis (OA), all of whom were also undergoing total joint replacement surgery. The FLS were isolated from the synovial tissues in accordance with a previously described procedure (Cho, C. S., M. L. Cho, S. Y. Min, W. U. Kim, D. J. Min, S. S. Lee, S. H. Park, J. Choe, and H. Y. Kim. 2000. CD40 engagement on synovial fibroblast up-regulates production of vascular endothelial growth factor. J. Immunol. 164: 5055-5061).
(§2) In brief, fresh synovial tissues were minced into 2- to 3-mm pieces, then treated for 4 h with 4 mg/ml type I collagenase (Worthington Biochemical), and maintained in Dulbecco's Modified Eagle's Medium (DMEM) containing 10% FBS at 37° C. in an atmosphere containing 5% CO2. […] MH7A cells, the immortalized synoviocytes that harbor the SV40 T antigen, were grown in DMEM supplemented with 10% FBS, as previously described (Miyazawa, K, A. Mori, and H. Okudaira. 1998. Establishment and characterization of a novel human rheumatoid fibroblast-like synoviocyte line, MH7A, immortalized with SV40T antigen. J. Biochem. 124: 1153-1162), and then employed in some of the experiments. Human umbilical vein endothelial cells (HUVECs) were isolated from fresh human umbilical cords via collagenase (Worthington Biochemical) digestion, and then maintained in 20% FBS-containing M-199 medium (Sigma, St. Louis, Mo.), as previously described. All HUVECs were used after no more than five passages.
(§3) The RA FLS, OA FLS, and HUVECs were plated onto 24-well culture dishes at a density of 2×10^4 cells/well, and then permitted to attach overnight. After 24 h of serum starvation, the cells were treated for 72 h with a variety of mitogens. [^3H]-thymidine (1 μCi) was added to each of the wells prior to the final 6 h of incubation. Cell growth was also evaluated via cell counts. Control and mitogen-treated cells were harvested by trypsinization, and the number of cells was determined with a hemocytometer, under ×100 magnification.

In assay [1] the test system is RA FLS. As to the kind of experiment: Cell proliferation assay ([3H]-thymidine incorporation, cell counts) in RA FLS. The note with it: 72 h. As for the experimental part:
as §1, §2, §3
In general terms: Uptake of a labelled nucleoside into DNA is a usual measure of proliferation.

The next assay has as its system HUVECs. As to the kind of experiment: HUVEC wounding migration assay. The note with it: SAA 5 μM, WKYMVm 10 nM, VEGF 20 ng/ml; 12 h. As for the experimental part: […] After 12 h of incubation, migration was quantitated via counts of the cells migrating beyond the reference line. For the tube formation assay, the HUVECs were seeded on a layer of previously polymerized Matrigel (BD Biosciences) with SAA (SEQ ID NO:19) (5 μg/ml), WKYMVm (SEQ ID NO:5) peptide (10 nM), a specific ligand for FPRL1 (32, 33) or VEGF (20 ng/ml). After 18 h of incubation, the cell morphology was visualized via phase-contrast microscopy and photographed.

The subject of assay [2] is RA FLS. As to the kind of experiment: Intracellular Ca2+ measurement (Fluo3-AM) in RA FLS. As for the experimental part: The isolated FLS were incubated with Fluo3-AM working solution, containing 0.03% plutonic F-127 (the final concentration of Fluo3-AM was 20 μmol·L^−1) for 1 h at 37° C. After incubation, the cells were washed three times with normal or Na^+- and K^+-free Tyrode's solution, at 25° C. in order to remove the extracellular Fluo3-AM. Fluo3-AM fluorescence in the cells was elicited at 488 nm with a high-power Ar^+ laser, and the emission bands were detected at 530 nm with a photomultiplier. The fluorescence signal was detected using a confocal laser scanning system (Biorad Lasersharp MRA2, Oxfordshire, UK), equipped with a Nikon E-600 Eclipse microscope. The fluorescence intensity (FI) was measured both prior to (FI0) and after (FI) the addition of serum amyloid A (SAA) or phorbol-12-myristate-13-acetate (PMA) to either the normal the Na^+- and K^+-free Tyrode's solution. The change in [Ca^2+]i, was expressed in terms of the (FI−FI0)/FI0 ratio. A total of 50-120 images were scanned in each cell.

Assay [3] relates to RA FLS. The assay can be described thus: Apoptosis assay (MTT, DNA fragmentation ELISA) in RA FLS. The note with it: for serum starvation-induced apoptosis (MTT assay, DNA fragmentation ELISA): 72 h. Here is the method: Synoviocyte apoptosis was induced via 3 days of serum deprivation, or by treating the cells for 12 h with either SNP (0.7 mM) or anti-Fas IgM (0.7 μg/ml) plus cyclohexamide (CHX; 1 μg/ml). The degree of apoptosis was then evaluated via MTT assay and ELISA for DNA fragmentation. In the MTT assay, FLS were seeded in 24-well culture plates at a density of 2×10^4 cells/well. After 96 h of incubation with SAA (SEQ ID NO:19) or media alone, MTT solution was added to each of the wells, and then incubated for 2 additional hours. The reaction was halted via the removal of MTT. Thereafter, DMSO (200 μL) was added in order to solubilize the formazan crystals. The plates were then subjected to 5 minutes of gentle shaking in order to ensure that the crystals had dissolved completely, and the absorbance was read at 540 nm with a microplate reader. The cellular DNA fragmentation assay was conducted using an ELISA kit (Roche Applied Science), based on the quantitative sandwich ELISA principle, using two mouse monoclonal antibodies (Roche Applied Science) targeted against DNA and 5-bromo-2′-deoxyuridine (BrdU).
In brief, the BrdU-labeled DNA fragments of the samples were bound to the immobilized anti-DNA antibody, fixing it within the wells of a microtiter plate. The immune-complexed BrdU-labeled DNA fragments were then denatured and fixed to the surfaces of the plates via the application of microwave irradiation. In the final step, the anti-BrdU peroxidase conjugate was allowed to react with the BrdU that had been incorporated into the DNA. After the removal of the unbound peroxidase conjugates, the quantity of peroxidase bound within the immune complex was determined photometrically, using TMB as a substrate.

In assay [4] the test system is RA FLS. The assay can be described thus: Western blot analysis of signaling molecules in RA FLS. The conditions noted are these: for time of peak cyclin D1 expression: SAA 3 μM or WKYMVm 10 nM. As for the experimental part: RA FLS were incubated for 24 h in DMEM without FBS, and then SAA (SEQ ID NO:19) (3 μM) was added to RA-FLS for the indicated times. The treated RA-FLS was then washed twice in phosphate-buffered saline (PBS), dissolved in sample buffer (50 mM Tris-HCl, 100 mM NaCl, 0.1% sodium dodecyl sulfate (SDS), 1% NP-40, 50 mM NaF, 1 mM Na3VO4, 1 μg/ml aprotinin, 1 μg/ml pepstatin, and 1 μg/ml leupeptin), boiled, separated via SDS-polyacrylamide gel electrophoresis, and transferred to nitrocellulose membranes. After immunoblot analysis with phospho-ERK1/2 (Thr 202/Tyr 204), phospho-Akt (Ser 473), phospho-STAT3 (Tyr 705), Cylin D1, or Bcl-2 antibodies, the membranes were stripped and re-incubated with anti-Actin antibody in order to detect total protein amounts.
A general note: In western blotting, separated proteins are transferred to a membrane and probed.

For the molecule “WKYMVm: specific agonist peptide for FPRL1, SEQ ID NO:5 (WKYMV[dM]; listed as Homo sapiens)”, the results for the “DNA synthesis activity / proliferation ([3H]-thymidine incorporation)” value (“DNA synthesis activity / proliferation” for short) in the assay on OA FLS and in the assay with RA FLS [1] were “not OA FLS” and “dose-dependent increase”, respectively. Moreover, in the assay on HUVECs, the “migratory activity of HUVECs relative to control cells” value is “approximately 3 times”. In addition, the “release of intracellular Ca2+” value in the assay with RA FLS [2] (WKYMVm 10 nM) is listed as “mimicked”. The “serum starvation-induced apoptosis (MTT assay, DNA fragmentation ELISA)” value with RA FLS [3] was “mitigating starvation-induced cell death”. The “time of peak cyclin D1 expression” value in the assay on RA FLS [4] is given as 4 h. Besides, the “activation of ERK and Akt” value in the assay on RA FLS [4] (WKYMVm 1 to 1000 nM) is “dose and time-dependent activation”.

B1: SAA: Serum amyloid A, multi-functional apolipoprotein, 12- to 14-kDa, SEQ ID NO:19 (protein, listed as Homo sapiens)
chain: MKLLTGLVFCSLVLGVSSRSFFSFLGEAFDGARDMWRAYSDMREANYIGSDKYFHARGNYDAAKRGPGGVWAAEAISDARENIQRFFGHGAEDSLADQAANEWGRSGKDPNHFRPAGLPEKY
As for B1, in the assay on OA FLS, the “DNA synthesis activity / proliferation” value is given as “increased in a dose-dependent fashion”, the cell numbers result is reported as “dose-dependently increased” and the “concentration of maximal effect on DNA synthesis” value came to 5 µM. Moreover, in the assay with RA FLS [1], the “DNA synthesis activity / proliferation” value is “increased in a dose-dependent fashion”, the cell numbers result is recorded as “dose-dependently increased” and the “concentration of maximal effect on DNA synthesis” value is 5 µM. For the same molecule, in the assay with HUVECs, the “migratory activity of HUVECs relative to control cells” value was “approximately 3 times”. Further, in the assay on RA FLS [2] (RA FLS, SAA 3 μM), the “increase in intracellular Ca2+ compared to basal levels” value is 2.3 fold. In the assay on RA FLS [3], the “serum starvation-induced apoptosis (MTT assay, DNA fragmentation ELISA)” value is recorded as “dose-dependent inhibition”. The “DNA fragmentation induced by SNP (0.7 mM) or anti-Fas (0.7 μg/ml) plus CHX (1 μg/ml)” value in the assay with RA FLS [3] (SAA 3 μM, 12 h) is reported as “blocked almost completely”. For the same molecule, in the assay with RA FLS [4] (3 μM SAA), the “earliest detectable ERK1/2 and Akt phosphorylation after stimulation” value was 1 min. In addition, the “time of peak cyclin D1 expression” value in the assay with RA FLS [4] is 4 h.
